# Data as given in the supplement of paper PMC10126150.
# ± gives the standard deviation of the averaged measurements.
# Tested on: ATP
# Assay: switch fluorescence ratio, 500 uM ATP over buffer (Cy3 cluster intensity, sum of 5 cycles each) (fold (ratio)); higher = stronger signal-on switching upon ATP binding; sequences stand for … in TCGTCGGCAGCGTCAGATGTGTATAAGAGACAGTTTTTTTTTTTTTTTTTTTTTTTTT…TC
# Settings: aptamer strand: ATP DNA aptamer (quencher-CACCTGGGGGAGTATTGCGGAGGAAGG + anchor), 100 nM annealed; ATP concentration: 500 uM
# How it was run: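 Cy3-labelled switching-strand clusters on a modified Illumina MiSeq flow-cell were annealed to 100 nM quencher-labelled ATP aptamer, imaged in selection buffer, then imaged after 15 min with 500 uM ATP at 22 °C. Five buffer/ATP cycles ran, with NaOH stripping and re-annealing between them. The fluorescence ratio is summed target-cycle over summed buffer-cycle Cy3 intensity per cluster, averaged per switch-domain sequence. Clusters outside 100-1000 RFU were excluded.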
# 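Further: ATP exposure 15 min at 22 °C before imaging.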
row,Sequence,switch fluorescence ratio
1,GTGAGAGGGG,1.008 ± 0.0069
2,GTGAGGCGGT,0.968 ± 0.017
3,GTGAGGGATT,1 ± 0.022
4,GTGAGGGGTA,0.975 ± 0.033
5,GTGAGGGTGA,1 ± 0.011
6,GTGAGTCTAA,0.993 ± 0.018
7,GTGAGTGTCA,1 ± 0.03
8,GTGAGTGTTT,0.99 ± 0.011
9,GTGATAAATG,0.956 ± 0.021
10,GTGATAAGAC,1.042 ± 0.0085
11,GTGATAGGGC,0.999 ± 0.025
12,GTGATATTGT,1.01 ± 0.011
13,GTGATCGGGT,1.02 ± 0.015
14,GTGATCTGGG,0.9689 ± 0.0053
15,GTGATGCTTG,0.998 ± 0.037
16,GTGATGGGGA,0.9895 ± 0.0095
17,GTGATTACTG,0.97 ± 0.011
18,GTGATTAGGG,0.968 ± 0.022
19,GTGATTTAGA,0.9969 ± 0.0054
20,GTGATTTGGG,1.01 ± 0.0076
21,GTGCAAGGGT,1.01 ± 0.029
22,GTGCCATGTT,0.9816 ± 0.0083
23,GTGCCCAACG,1.03 ± 0.03
24,GTGCGACGTT,0.965 ± 0.08
25,GTGCTATCTA,1 ± 0.023

row,Sequence,switch fluorescence ratio
1,GTGCTCTTAC,1.11 ± 0.014
2,GTGCTTCTTA,0.992 ± 0.025
3,GTGCTTCTTT,0.99 ± 0.011
4,GTGGAAGTTG,0.949 ± 0.041
5,GTGGAATAAT,0.981 ± 0.015
6,GTGGACATAT,0.991 ± 0.015
7,GTGGACTAGT,1.02 ± 0.026
8,GTGGAGGGGA,1.01 ± 0.043
9,GTGGATTTGG,1.019 ± 0.0056
10,GTGGATTTTC,1 ± 0.062
11,GTGGCAGGGG,1.36 ± 0.63
12,GTGGCATACT,1.12 ± 0.016
13,GTGGCATGGG,1 ± 0.014
14,GTGGCCCTAT,0.998 ± 0.027
15,GTGGCTGGGA,0.974 ± 0.026
16,GTGGCTTGGG,1.02 ± 0.018
17,GTGGGAAAGG,0.9715 ± 0.0057
18,GTGGGAACAG,0.979 ± 0.011
19,GTGGGAATTA,0.996 ± 0.025
20,GTGGGACGAG,0.971 ± 0.018
21,GTGGGAGGGA,1.02 ± 0.043
22,GTGGGAGGTT,0.948 ± 0.036
23,GTGGGATCCG,0.998 ± 0.014
24,GTGGGATGAG,1.01 ± 0.022
25,GTGGGATGGG,0.973 ± 0.019

row,Sequence,switch fluorescence ratio
1,GTGGGCCGAG,1.021 ± 0.0076
2,GTGGGCGCCG,0.987 ± 0.023
3,GTGGGCGGGG,0.979 ± 0.031
4,GTGGGGAATA,1.03 ± 0.043
5,GTGGGGAGCT,1.03 ± 0.061
6,GTGGGGATGT,1.01 ± 0.024
7,GTGGGGCAAA,1 ± 0.043
8,GTGGGGCATA,0.982 ± 0.017
9,GTGGGGCCGC,0.979 ± 0.036
10,GTGGGGGCCC,0.993 ± 0.017
11,GTGGGGGCGG,1.01 ± 0.022
12,GTGGGGGCTG,0.9878 ± 0.0047
13,GTGGGGGGTC,1.01 ± 0.062
14,GTGGGGTGGG,0.986 ± 0.029
15,GTGGGTGGGA,0.982 ± 0.046
16,GTGGGTGTCC,1.01 ± 0.017
17,GTGGGTTGGA,0.993 ± 0.033
18,GTGGGTTTGG,0.999 ± 0.049
19,GTGGTAAAAG,0.984 ± 0.013
20,GTGGTAAGAT,0.991 ± 0.037
21,GTGGTAAGCG,0.995 ± 0.065
22,GTGGTACGTA,1.02 ± 0.06
23,GTGGTACTGG,0.9683 ± 0.0066
24,GTGGTAGGCG,0.975 ± 0.014
25,GTGGTAGGGT,1.02 ± 0.02

row,Sequence,switch fluorescence ratio
1,GTGGTATCCG,0.973 ± 0.058
2,GTGGTATCGG,0.989 ± 0.029
3,GTGGTATGTC,1.01 ± 0.07
4,GTGGTCGAGT,0.989 ± 0.01
5,GTGGTCGGCA,0.996 ± 0.011
6,GTGGTCTTGA,0.981 ± 0.028
7,GTGGTGGCAG,0.979 ± 0.015
8,GTGGTTATGC,1.02 ± 0.033
9,GTGGTTCTAT,0.996 ± 0.026
10,GTGGTTGGGA,0.992 ± 0.029
11,GTGGTTTATA,1.01 ± 0.021
12,GTGTAACAGA,1 ± 0.013
13,GTGTAAGAGA,1.006 ± 0.0081
14,GTGTAAGCAG,0.995 ± 0.01
15,GTGTAAGGTT,0.9935 ± 0.0066
16,GTGTAATAAG,0.99 ± 0.031
17,GTGTAATAGG,0.9713 ± 0.0056
18,GTGTAATAGT,0.996 ± 0.021
19,GTGTAATTTG,0.994 ± 0.036
20,GTGTAATTTT,0.993 ± 0.032
21,GTGTAGAAAT,0.9834 ± 0.0068
22,GTGTATAGGC,1.09 ± 0.038
23,GTGTATAGTG,0.982 ± 0.018
24,GTGTATCGGT,0.994 ± 0.023
25,GTGTCAGGGG,1.04 ± 0.07

row,Sequence,switch fluorescence ratio
1,GTGTCCCCTG,0.981 ± 0.04
2,GTGTCCTGTA,0.998 ± 0.072
3,GTGTCGAAGG,0.976 ± 0.051
4,GTGTCGTGGC,1.012 ± 0.0029
5,GTGTGAAAGG,1 ± 0.013
6,GTGTGAGTGT,0.973 ± 0.016
7,GTGTGGGGGC,1.008 ± 0.0072
8,GTGTGGGGGG,1.02 ± 0.075
9,GTGTGGTATA,0.982 ± 0.012
10,GTGTGGTGCA,0.9802 ± 0.0045
11,GTGTGTGGAC,1.01 ± 0.026
12,GTGTGTTCGC,0.9546 ± 0.0069
13,GTGTTAATTA,0.989 ± 0.021
14,GTGTTACGGG,0.985 ± 0.016
15,GTGTTACTGT,0.959 ± 0.026
16,GTGTTAGCTG,1.02 ± 0.028
17,GTGTTAGGGC,0.9919 ± 0.0057
18,GTGTTAGTAT,1.02 ± 0.031
19,GTGTTAGTTA,1.01 ± 0.011
20,GTGTTATCTG,0.978 ± 0.012
21,GTGTTATGAG,0.995 ± 0.067
22,GTGTTCTAGT,0.955 ± 0.012
23,GTGTTGCGGC,0.986 ± 0.016
24,GTGTTGGAGG,0.996 ± 0.017
25,GTGTTGTTGG,0.986 ± 0.019

row,Sequence,switch fluorescence ratio
1,GTGTTTCCTG,0.994 ± 0.028
2,GTGTTTCCTT,1.02 ± 0.036
3,GTGTTTGACA,0.9604 ± 0.005
4,GTGTTTGTTC,0.968 ± 0.013
5,GTGTTTTACG,1.01 ± 0.021
6,GTTAAAACTT,1.005 ± 0.0097
7,GTTAAAGGTA,0.962 ± 0.019
8,GTTAAATGTG,0.972 ± 0.024
9,GTTAAATTTT,0.986 ± 0.024
10,GTTAACGTGG,0.99 ± 0.019
11,GTTAACTGAG,1.03 ± 0.041
12,GTTAAGGTTT,1.03 ± 0.063
13,GTTAATGGAA,0.986 ± 0.039
14,GTTACAATGG,0.991 ± 0.038
15,GTTACATAGC,1.08 ± 0.014
16,GTTACATGCG,0.976 ± 0.02
17,GTTACGGCAA,1.27 ± 0.064
18,GTTACTAATG,0.9996 ± 0.0029
19,GTTACTGGAC,1.12 ± 0.14
20,GTTAGAGCCG,1.09 ± 0.062
21,GTTAGATACG,1 ± 0.028
22,GTTAGATGGG,1 ± 0.034
23,GTTAGATGGT,0.9851 ± 0.0037
24,GTTAGGCCAG,0.986 ± 0.041
25,GTTAGGGGCG,0.982 ± 0.013

row,Sequence,switch fluorescence ratio
1,GTTAGGGGGT,0.994 ± 0.027
2,GTTAGGTAGG,0.9818 ± 0.005
3,GTTAGTACTG,0.96042 ± 0.00063
4,GTTATAAAAA,1.01 ± 0.07
5,GTTATACGTA,1.03 ± 0.019
6,GTTATAGGAG,0.99 ± 0.019
7,GTTATAGGGG,0.99 ± 0.018
8,GTTATAGGTG,1.06 ± 0.065
9,GTTATAGTGG,0.981 ± 0.01
10,GTTATGAGTT,0.975 ± 0.029
11,GTTATGCTCT,1.01 ± 0.014
12,GTTATGGGGG,1.04 ± 0.013
13,GTTATGGGTG,0.983 ± 0.029
14,GTTATTACGT,1.03 ± 0.021
15,GTTATTAGCT,0.992 ± 0.013
16,GTTATTATTC,0.9922 ± 0.0057
17,GTTATTATTG,1.02 ± 0.013
18,GTTATTGGAG,0.999 ± 0.026
19,GTTATTGGGA,0.99 ± 0.051
20,GTTATTGTTT,0.983 ± 0.041
21,GTTATTTACT,1.024 ± 0.0033
22,GTTATTTAGG,0.9966 ± 0.0084
23,GTTCAAAAGG,0.919 ± 0.028
24,GTTCAAAGGT,0.96 ± 0.032
25,GTTCAAATCA,0.997 ± 0.047

row,Sequence,switch fluorescence ratio
1,GTTCAATTGG,0.98 ± 0.021
2,GTTCACGTAA,1.16 ± 0.15
3,GTTCACTTTT,1.02 ± 0.036
4,GTTCAGGGCT,1.01 ± 0.02
5,GTTCGAGGGC,1.046 ± 0.002
6,GTTCGCATTG,1.08 ± 0.024
7,GTTCGCGGTG,0.998 ± 0.017
8,GTTCTCAGTG,1.01 ± 0.03
9,GTTCTGCAAT,3.97 ± 0.11
10,GTTCTGGGAG,1 ± 0.012
11,GTTCTTGCGG,0.959 ± 0.022
12,GTTCTTTGG,0.9949 ± 0.0077
13,GTTGAAAAAA,1.31 ± 0.73
14,GTTGAAAAGG,0.971 ± 0.051
15,GTTGAAGGGA,0.983 ± 0.018
16,GTTGAAGTTG,0.968 ± 0.02
17,GTTGACAGG,1.025 ± 0.0066
18,GTTGACCGGT,1 ± 0.016
19,GTTGACGGGG,1.01 ± 0.021
20,GTTGACGGTG,0.982 ± 0.039
21,GTTGACTTGA,1.02 ± 0.03
22,GTTGAGGGA,1.04 ± 0.079
23,GTTGAGGTCG,0.995 ± 0.022
24,GTTGAGTATA,1.01 ± 0.033
25,GTTGATGTAT,0.987 ± 0.021
